Results published in the DeepSol protein solubility set.

test: soluble on expression in E. coli; label from the status in PepcDB or PDB records

| Sequence | soluble on expression in E. coli |
| --- | --- |
| MTKYALVGDVGGTNARLALCDIASGEISQAKTYSGLDYPSLEAVVRVYLDEHSVSVEDGCIAIACPITGDWVAMTNHTWAFSIAEMKKNLGFSHLEIINDFTAVSMAIPMLKKEHLIQFGGGEPVDGKPIAVYGAGTGLGVAHLVHVDKRWISLPGEGGHVDFAPNSEEEAMILEILRAEIGHVSAERVLSGPGLVNLYRAIVKSDNRLPENLRPKDITERALADSCIDCRRALSLFCVIMGRFGGDLALTMGTFGGVYIAGGIVPRFLEFFKASGFRGGFEDKGRFKDYVHGIPVYLIVHDNPGLLGSGAHLRQTLGHIL | not soluble |
| MTLELLQAQAQNCTACRLMEGRTRVVFGEGNPDAKLMIVGEGPGEEEDKTGRPFVGKAGQLLNRILEAAGIPREEVYITNIVKCRPPQNRAPLPDEAKICTDKWLLKQIELIAPQIIVPLGAVAAEFFLGEKVSITKVRGKWYEWHGIKVFPMFHPAYLLRNPSRAPGSPKHLTWLDIQEVKRALDALPPKERRPVKAVSQEPLF | soluble |
| MTLHLPGADGTLRAYEPRTEPLPTLRATSGSAFSSRTVFSAAHVVADPYADTTPDGPAAVDWDATLAFRRHLWSHGLGVAEAMDTAQRGMGLDWPTAAELIRRSAAEARATGGRIACGVGTDQLTATAATLADVRSAYEEQLAVVEESGAQAILMASRALAATAKGPDDYLEVYGHLLRQAAEPVILHWLGPMFDPALEGYWGSSDLDAATDTFLEVIAAHPDKVDGIKVSLLDAQREIDLRRRLPRGVRCYTGDDFNYPELIAGDEQGFSHALLGIFDPLGPLAAEAVRVLDTGDTDGFRALLDPTVELSRHLFRAPTRYYKTGVVFLAWLAGHQSHFTMVGGLQSARSLPHLARAYELADGLGLFPDPKPAEERMRNLLALYGVN | not soluble |
| MTLKGMSYVMCTGSFKLEKEVAETQHGTVLVQVKYEGTDAPCKIPFSTQDEKGATQNGRLITANPIVTDKEKPVNIEAEPPFGESYIVVGAGEKALKLSWFKKGSSIG | soluble |
| MTLMKSNLIAAAEIDRLDTWAKYTAPMCGSCMSSCCTLPVEVKIKDLIRIGIVDEFERGEPAKNIAKRLQKEGIVERYNQKSEIFTLQRMSNNDCLYLDRKSRLCTIYDKRPDTCRNHPKIGPRPGYCAYKPKPQVRPTNTSSRTLERFLEHHHHHH | not soluble |
| MTLSAIQPNDMALYHYDSCPFCAKTRHAINELDLNIELRNIQKNHQHRIELQQGGNKTQVPCLRIGQSNGKAQWLYESGDIINFLRNRK | not soluble |
| MTLTRGSFTYSSGEEYTGEWKEGRRHGKGELKFADGTCYKGHFENGLFHGSGVLVFPDGSRYEGEFAQGKFQGVGIFSRFDGMKFEGEFKSGRVEGHGLLTFPDGSHGAPRNEGMFENNKLLKREKCQAVVQRAKNSASTARGLSV | soluble |
| MTLTSDDLRQIAALTLAHYDDNAVSFEVGTRDHDVSQNIAALLRHIQGDPPYAILDFGCGPGRDLKTFAALGHAAVGLDGAAHFVAMAHQATGCEVWQQDFLRLALPAGRFDGIFANASLFHVPTQELPRVLGELRDTLKPGGVLFCSNPRGGNEEGWSRGRYGVWHDWESWRALLEAAGFQALEHYYRPAGLPREQQQWLASVWRRLEHHHHHH | soluble |
| MTLYEYDGSHVRKRVFQNTSWIFVTGDRYDIETLYDQLDSTRLKYEYSTMPDIYGYQDGIKIWVRPSHARMVGEIIFSNIGYGRRYRVYNADIDPVLRFMASNGLSFFEMRSVYDPDPDLNVAMVDCSHGKCIVDGEAMGDGRIYDRLMDSHVIVYEGTEQFYRKLMALGIRARYYPGKSFTSYGQISYRDSYLDIADRIAINSRSFFYAESGLSGIYEVSRISHLPPLYVSIVTPGTAVSSMELAEAVKKGMLVPFKKDDHENPKTKWEIMAKDRGGLIFQPLPGLYTDVYEIDFSSMYPSIIVRYDLTPGRISFLPEALEGLLSRRLIYKKMDGESVVYHSRNVALKWLLLTSFGYTGYKNAKFGKIEVHERITELGRKALAEAIAVAHENGFEMIHGIVDSLWIRGSGSIERVVSEISRRTRIDIVVSGHYHWIAFLPERDGTGSPSRYIGLDTSGKYKIRGLMIRRSDVPDLCKAFQMDALRVLSSCTDTRCILEKRREIMDLENYYLRNIRHFPRSYFMVSRKITRRPDEYHVKNLTRSALDLCRDAEELSPGQMISYYVVDEKRKIVDTDGENGIDYGYYRRCLTRALEEINFLFGKNCNIRRLEDFQSFQ | not soluble |
| MTNSNRRKFLKATGVGLLGGLAGCTRGGDSSGGDGSDGSSDGSDGSGGSDGGTSTSGSDGELAIPLSEYEDADIDWRQFEGSSINIGAVQHPWVSAIKPAVPVFEELTGIDVVWNVLPEQQFRTKRQTDVSTGAGQFDVFYMDQVVNQFREEGWIQPLDPFFDDDSLFDEDWYEPDDLFEASRWQAHGGGYSDTWTGMPITVEVQTQFYRKDLYDKHDLEVAETLEQFRQNAQTIHENESDVVGTVGRGDKGYGMNIYILNTFLREFGTSLWTEFPTDSGLDSDGVINAAEWYVSLLQDYGPEGASTQTWSDVLSTMQEGRAGHIVSDANLFWPGLTGSDSSVADNIGIAKAPSPADGQFSPNAFNWQISTSKNAQNSEQAFLFMVWASSQPTNTWMHVEGDAAFSVRQSVWENDEFRSRVGENFAQVTLESLQEAAPDPFDRKYPQWGQRYSEELQRAIAGQKSAEEAMTKAASVAEDIYSN | not soluble |
| MTPEAAYQNLLEFQRETAYLASLGALAAWDQRTMIPKKGHEHRARQMAALARLLHQRMTDPRIGEWLEKVEGSPLVQDPLSDAAVNVREWRQAYERARAIPERLAVELAQAESEAESFWEEARPRDDWRGFLPYLKRVYALTKEKAEVLFALPPAPGDPPYGELYDALLDGYEPGMRARELLPLFAELKEGLKGLLDRILGSGKRPDTSILHRPYPVEAQRRFALELLSACGYDLEAGRLDPTAHPFEIAIGPGDVRITTRYYEDFFNAGIFGTLHEMGHALYEQGLPKEHWGTPRGDAVSLGVHESQSRTWENLVGRSLGFWERFFPRAREVFASLGDVSLEDFHFAVNAVEPSLIRVEADEVTYNLHILVRLELELALFRGELSPEDLPEAWAEKYRDHLGVAPKDYKDGVMQDVHWAGGLFGYFPTYTLGNLYAAQFFQKAEAELGPLEPRFARGEFQPFLDWTRARIHAEGSRFRPRVLVERVTGEAPSARPFLAYLEKKYAALYG | soluble |
| MTPEIKVKSMRSVGTQVDVQCITYGLAGFDSVFKHCGVFSGEEHNVSSIWKGPVRMVERKTETESFEISQYGETVFKPSLQLLVGTSDEIAFSLLRHVFSKMDIIELRHYLQVLGFEKTFNLMYNLGEEFIEGEIPVDERILLDEIEALESFTVSNMTIEEEIEARRVERLALKFVEEMYNPDTENDEQIALLLHSEMNDENGDNDLIEEDYFNIANLEESFPGTNKKVVREAYNIAGRKVDFTREILLSNGEVENTYAVKLKPKPTWSKKVASSPSPLRLSLPKKSKKEEENHFLKKRSGRHSQLEEIQLLAIRTRQKIEADRITSSNSMAAAKYRQLIIVDRASRMKIEKSSEVKELDRKIREAHNNPWFLDLHYMSVDGAVKLVKEAIEAVKYHLKAARNLDRRITVVTGSGNNSKCGAKIKPQVLAMLQHNDYNYELVNDGCIRFKV | not soluble |
| MTPHVMKRDGCKVPFKSERIKEAILRAAKAAEVDDADYCATVAAVVSEQMQGRNQVDINEIQTAVENQLMSGPYKQLARAYIEYRHDRDIEREKRGRLNQEIRGLVEQTNASLLNENANKDSKVIPTQRDLLAGIVAKHYARQHLLPRDVVQAHERGDIHYHDLDYSPFFPMFNCMLIDLKGMLTQGFKMGNAEIEPPKSISTATAVTAQIIAQVASHIYGGTTINRIDEVLAPFVTASYNKHRKTAEEWNIPDAEGYANSRTIKECYDAFQSLEYEVNTLHTANGQTPFVTFGFGLGTSWESRLIQESILRNRIAGLGKNRKTAVFPKLVFAIRDGLNHKKGDPNYDIKQLALECASKRMYPDILNYDQVVKVTGSFKTPMGCRSFLGVWENENGEQIHDGRNNLGVISLNLPRIALEAKGDEATFWKLLDERLVLARKALMTRIARLEGVKARVAPILYMEGACGVRLNADDDISEIFKNGRASISLGYIGIHETINALFGGEHVYDNEQLRAKGIAIVERLRQAVDQWKEETGYGFSLYSTPSENLCDRFCRLDTAEFGVVPGVTDKGYYTNSFHLDVEKKVNPYDKIDFEAPYPPLANGGFICYGEYPNIQHNLKALEDVWDYSYQHVPYYGTNTPIDECYECGFTGEFECTSKGFTCPKCGNHDASRVSVTRRVCGYLGSPDARPFNAGKQEEVKRRVKHLGNGQIG | not soluble |
| MTPIPFFNHMLITLLTYMNSTAIVSATDKLPYDDHHIVEDVAITLGLAIKTALGDKRGIKRFSHQIIPMDDALVLVSLDISNRGMAFVNLNLKRSEIGGLATENVPHFFQSFAYNSGITLHISQLSGYNTHHIIEASFKALGLALY | soluble |
| MTPLPVTVIGGYLGAGKTTLVNHLLRHAAGRRLAVLVNEFGDLPIDADLIEAEEDGMISIAGGCICCSFGSDLIGALNDLAAMEPRPDHILVESSGVAIPGAIVSTMLLADGIRSDGIVVVVDGETVRQRAQDDYVGDTITRQLSDAEIVVVNKTDLLAHAVQTELMEWLAEAAPGAIAIPAERGRVAPGALLGVLPAPGTGQPAHHSDRLFDSLVLAPEGGQPIERLARDLATGPHGVIRAKGYLRDIEGALWLIQTVGRRWEVTPAQGPHQTGLVCIGFRDRLDRSGLAALAGATV | not soluble |
| MTQAATILRTGRKFDQVLRGAREVFMSDGFEGANVDDIARAAGVSKATLYSYFPDKRLLFVEVAQTECQLMAERILSMIDEDRPVREVLTITATQLVAFLISDFAQQVFRICLAERERFPELARAFYAAGPENGQRQICEYLEKAVTKGELVIADIPMAAEQFSELCKTRLWTRAVFGIQTRFTQAEIDEVALAAVDTFLARYGA | not soluble |
| MTQGAVKTTGKRSRAVSAKKKAILSAALDTFSQFGFHGTRLEQIAELAGVSKTNLLYYFPSKEALYIAVLRQILDIWLAPLKAFREDFAPLAAIKEYIRLKLEVSRDYPQASRLFCMEMLAGAPLLMDELTGDLKALIDEKSALIAGWVKSGKLAPIDPQHLIFMIWASTQHYADFAPQVEAVTGATLRDEVFFNQTVENVQRIIIEGIRPR | soluble |
| MTQISERLLVQAHLDAKQPNPLTAEQEAEYRAAIAAELKAQNAVLVAHYYCDPVIQALAEETGGCVSDSLEMARFGKNHPAETVIVAGVRFMGETAKILTPEKRVLMPTLEATCSLDLGCPVEEFSAFCDQHPERTVVVYANTSAAVKARADWVVTSSCALEIVESLMDNGETIIWGPDQHLGRYIQKQTGADMLLWDGACIVHEEFKSRQLADMKALYPDAAILVHPESPEAVIELADAVGSTSQLIKAAQTLPNKTFIVATDRGIFYKMQQLCPDKEFVEAPTAGNGAACRSCAHCPWMAMNTLERVLDCLRNGTNEIFVDPALVPKAIKPLNRMLDFTQAARLKLSGNALEHHHHHH | not soluble |
| MTQPAIQLTEYQRKWIEDKSRFKISLKARQTGFSFAVSLEVVLDAVERRTTWVLLSRGERQSKELMEKVAMHARAIGVACEELETTFKIDDKDIKQLEVRFPNGSKVIGLPANPDTARGFSGNVVLDEFAFHADSRKIWTALYPTITRGYKIRVISTPNGKSGKFYDLWMDNTGTWSKHFVDIYMAKEQGLDIDIDELRKGCESEDDWLQEFCCEFIDENGALLPYELITPCETDEATFTLPEDFTPQGDLTLGVDIGRKRDLTVMWVLEYTGTLYWTRAIHILEKQKFSVQREQLFTYLSMPRMRRACIDATGIGMQLAEEAVEAFGSKVEAVEFTGPVKQELAITQRRVFEDRAVRIPIDRVLRNDLHSVQKITTAAGNIRYAAERSEHGHADRFWALALALHAAINNPFVPLETKVARHSTMRRAMEGYG | not soluble |
| MTQPLVGKQILIVEDEQVFRSLLDSWFSSLGATTVLAADGVDALELLGGFTPDLMICDIAMPRMNGLKLLEHIRNRGDQTPVLVISATENMADIAKALRLGVEDVLLKPVKDLNRLREMVFACLYPSMFN | soluble |
